Series [1] can be described thus: LC-MS assay of GH3 conjugation of IAA with Asp or Glu. Format: biochemical. The note with it: for kcat (hrs−1) IAA-Asp: conjugation of IAA with Asp by recombinant GH3 protein, IAA-Asp product by LC-MS; for kcat (hrs−1) IAA-Glu: conjugation of IAA with Glu by recombinant GH3 protein, IAA-Glu product by LC-MS. Put shortly: (§1)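 Kinetic parameters come from Michaelis-Menten fits of initial velocities. Velocities reflect LC-MS quantification, against standards, of Asp or Glu conjugates formed by purified GH3 (44 to 164 μg/mL) with 5 mM ATP and MgCl2 at pH 8.0, 30° C.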

Series [2] is described as follows: LC-MS assay of GH3 conjugation of 2,4-D with Asp or Glu. Format: biochemical. The note with it: 5 mM 2,4-D substrate; for kcat (hrs−1) 2,4-D-Asp: conjugation of 2,4-D with Asp by recombinant GH3 protein, 2,4-D-Asp product by LC-MS; for kcat (hrs−1) 2,4-D-Glu: conjugation of 2,4-D with Glu by recombinant GH3 protein, 2,4-D-Glu product by LC-MS. Put shortly: as §1

B1: AtGH3-5: GH3 protein, accession O81829 (protein, listed as Arabidopsis thaliana)
chain: MPEAPKKESLEVFDLTLDQKNKQKLQLIEELTSNADQVQRQVLEEILTRNADVEYLRRHDLNGRTDRETFKNIMPVITYEDIEPEINRIANGDKSPILSSKPISEFLTSSGTSGGERKLMPTIEEELDRRSLLYSLLMPVMSQFVPGLENGKGMYFLFIKSESKTPGGLPARPVLTSYYKSSHFKERPYDPYTNYTSPNETILCSDSYQSMYSQMLCGLCQHQEVLRVGAVFASGFIRAIKFLEKHWIELVRDIRTGTLSSLITDPSVREAVAKILKPSPKLADFVEFECKKSSWQGIITRLWPNTKYVDVIVTGTMSQYIPTLDYYSNGLPLVCTMYASSECYFGVNLRPLCKPSEVSYTLIPSMAYFEFLPVHRNNGVTNSINLPKALTEKEQQELVDLVDVKLGQEYELVVTTYAGLCRYRVGDLLRVTGFKNKAPQFSFICRKNVVLSIDSDKTDEVELQNAVKNAVTHLVPFDASLSEYTSYADTSSIPGHYVLFWELCLDGNTPIPPSVFEDCCLAVEESFNTVYRQGRVSDKSIGPLEIKIVEPGTFDKLMDYAISLGASINQYKTPRCVKFAPIIELLNSRVVDSYFSPKCPKWVPGHKQWGSN
As for B1, in series [1], the “kcat (hrs−1) IAA-Asp” value was found to be 578.727 h⁻¹ and the “kcat (hrs−1) IAA-Glu” value came to 68.086 h⁻¹. In series [2], the “kcat (hrs−1) 2,4-D-Asp” value amounted to 2.309 h⁻¹ and the “kcat (hrs−1) 2,4-D-Glu” value came out at 0.795 h⁻¹.

B2: AtGH3-2: GH3 protein, accession AEE86787 (protein, listed as Arabidopsis thaliana)
chain: MAVDSPLQSRMVSATTSEKDVKALKFIEEMTRNPDSVQEKVLGEILTRNSNTEYLKRFDLDGVVDRKTFKSKVPVVTYEDLKPEIQRISNGDCSPILSSHPITEFLTSSGTSAGERKLMPTIEEDLDRRQLLYSLLMPVMNLYVPGLDKGKGLYFLFVKSESKTSGGLPARPVLTSYYKSDHFKRRPYDPYNVYTSPNEAILCSDSSQSMYAQMLCGLLMRHEVLRLGAVFASGLLRAISFLQNNWKELARDISTGTLSSRIFDPAIKNRMSKILTKPDQELAEFLVGVCSQENWEGIITKIWPNTKYLDVIVTGAMAQYIPTLEYYSGGLPMACTMYASSESYFGINLKPMCKPSEVSYTIMPNMAYFEFLPHNHDGDGAAEASLDETSLVELANVEVGKEYELVITTYAGLYRYRVGDILRVTGFHNSAPQFKFIRRKNVLLSVESDKTDEAELQKAVENASRLFAEQGTRVIEYTSYAETKTIPGHYVIYWELLGRDQSNALMSEEVMAKCCLEMEESLNSVYRQSRVADKSIGPLEIRVVRNGTFEELMDYAISRGASINQYKVPRCVSFTPIMELLDSRVVSAHFSPSLPHWSPERRR
Take B2: in series [1], the “kcat (hrs−1) IAA-Asp” value was determined as 511.761 h⁻¹ and the “kcat (hrs−1) IAA-Glu” value came to 30.640 h⁻¹. Also, in series [2], the “kcat (hrs−1) 2,4-D-Asp” value turned out to be 1.200 h⁻¹ and the “kcat (hrs−1) 2,4-D-Glu” value amounted to 0.131 h⁻¹.

B3: PtGH3-7: GH3 protein, accession EEE84166 (protein, listed as Populus trichocarpa)
chain: MLPVFDPNDNEAGLKLLEDLTNNACQIQQQVLEEILATNLHTEYLKSFLNGDSGKENFKNKVPIVNYEDIKPCIERIANGEPSSIISTQPITELLTSSGTSGGQPKIMPSTAEELERKTFFYNLLVPVMNKYVDGLDQGKAMYLLFIKPEISTPSGLMARPVLTSYYKSNNFRNRAFNRYNVYTSPDETILCSDSKQSMYCQLLCGLVQRDEVLRVGAIFASAFLRAIKFLEEYLKELCSNIRTGSVSDWITDPNCRNAVLSILSKPNSELADLIEDECSGKSWEGIIKKLWPRTKYIEVIVTGSMAQYIPTLEFYSGGLPLVSTMYGSSECYLGINFKPLSNPYDVSYTLLPNMAYFEFLPVDNNHKEVVPDVQCNGVSVTDRNGKEKVEAVDLVDVKLGHYYELIVTTFTGLYRYRVGDILMVTGFYNNAPQFRFVHRRNVVLSIDTDKTNEEDLLKAVTQAKVLLEPLGFLLTEYTSFADTASIPGHYVLFWELKMRGTNDLPELDPVIMEQCCSIVEESLDSVYRRCRKKDKSIGPLEVRVVTHGTFDALMDFCVSQGSSVNQYKTPRCIKSEEALKILDSRVVGRFSSNKTPFWEPFRIET
Consider B3, for which, in series [1], the “kcat (hrs−1) IAA-Asp” value worked out at 38.668 h⁻¹ and the “kcat (hrs−1) IAA-Glu” value was found to be 450.548 h⁻¹. Besides, in series [2], the “kcat (hrs−1) 2,4-D-Asp” value is 0.547 h⁻¹ and the “kcat (hrs−1) 2,4-D-Glu” value was determined as 3.487 h⁻¹.

B4: AtGH3-6: GH3 protein, accession Q9LSQ4 (protein, listed as Arabidopsis thaliana)
chain: MPEAPKIAALEVSDESLAEKNKNKLQFIEDVTTNADDVQRRVLEEILSRNADVEYLKRHGLEGRTDRETFKHIMPVVTYEDIQPEINRIANGDKSQVLCSNPISEFLTSSGTSGGERKLMPTIEEELDRRSLLYSLLMPVMDQFVPGLDKGKGMYFLFIKSESKTPGGLPARPVLTSYYKSSHFKNRPYDPYTNYTSPNQTILCSDSYQSMYSQMLCGLCQHKEVLRVGAVFASGFIRAIKFLEKHWPELARDIRTGTLSSEITDSSVREAVGEILKPDPKLADFVESECRKTSWQGIITRLWPNTKYVDVIVTGTMSQYIPTLDYYSNGLPLVCTMYASSECYFGVNLRPLCKPSEVSYTLIPNMAYFEFLPVHRNSGVTSSISLPKALTEKEQQELVDLVDVKLGQEYELVVTTYAGLYRYRVGDVLSVAGFKNNAPQFSFICRKNVVLSIDSDKTDEVELQNAVKNAVTHLVPFDASLSEYTSYADTSSIPGHYVLFWELCLNGNTPIPPSVFEDCCLTIEESLNSVYRQGRVSDKSIGPLEIKMVESGTFDKLMDYAISLGASINQYKTPRCVKFAPIIELLNSRVVDSYFSPKCPKWSPGHKQWGSN
Consider B4, for which, in series [1], the “kcat (hrs−1) IAA-Asp” value stood at 447.107 h⁻¹ and the “kcat (hrs−1) IAA-Glu” value came to 14.154 h⁻¹. In series [2], the “kcat (hrs−1) 2,4-D-Asp” value was 2.136 h⁻¹ and the “kcat (hrs−1) 2,4-D-Glu” value is 0.598 h⁻¹.

B5: CcGH3: GH3 protein, accession AAS02074 (protein)
chain: MAVDSVLSSPLGPPACEKDAKALQFIEEMTRNADAVQQRVLDEILTRNSQTEYLKRFKLDGVSDRETFKSRIPVVTYEDLQPEIQRIANGDRSPILSAHPISEFLTSSGTSAGERKLMPTIKEELDRRQLLYSLLMPVMNLYVPGLDKGKGLYFLFIKSETKTPGGLLARPVLTSYYKSEHFKSRPHDPYNVYTSPNEAILCADSFQSMYTQMLCGLYEREQVLRLGAVFASGLVRAIRFLQLHWPQLAHDIRTGNLNPQITNLSLCERMGKIMRPNPELADFVAGECCKENWEGIITRIWPKTKYLDVIVTGAMAQYIPTLDYYSGGLPKACTMYAASECYFGLNLNPMCKPSEVSYTIMPNMGYFEFLPHDSTTTNSSPTNLVDLVDVEVGKEYELVITTYAGLYRYRVGDILRVTGFHNSAPQFHFVRRKNVLLSIDADKTDEAELQKAVENASKLLREFNTSVVEYTSYADTKTIPGHYVIYWELLMKDLKNSPSDEVLNKCCLAMEESLNTVYRQGRVACNSIGPLEIRVVKNGTFEELMDYAISRGASINQYKVPRCVNFAPILELLDSRVMSSHFSPSLPQWTPERRR
modifications: Capsicum chinense
With B5, in series [1], the “kcat (hrs−1) IAA-Asp” value stood at 414.234 h⁻¹ and the “kcat (hrs−1) IAA-Glu” value amounted to 15.608 h⁻¹. Besides, in series [2], the “kcat (hrs−1) 2,4-D-Asp” value was 2.517 h⁻¹ and the “kcat (hrs−1) 2,4-D-Glu” value amounted to 0.577 h⁻¹.

B6: AtGH3-4: GH3 protein, accession Q9LQ68 (protein, listed as Arabidopsis thaliana)
chain: MAVDSLLQSGMASPTTSETEVKALKFIEEITRNPDSVQEKVLGEILSRNSNTEYLKRFDLNGAVDRKSFKSKVPVVIYEDLKTDIQRISNGDRSPILSSHPITEFLTSSGTSAGERKLMPTIEEDINRRQLLGNLLMPVMNLYVPGLDKGKGLYFLFVKSESTTSGGLPARPALTSYYKSDYFRTSDSDSVYTSPKEAILCCDSSQSMYTQMLCGLLMRHEVNRLGAVFPSGLLRAISFLQNNWKELSQDISTGTLSSKIFDHAIKTRMSNILNKPDQELAEFLIGVCSQENWEGIITKIWPNTKYLDVIVTGAMAEYIPMLEYYSGGLPMASMIYASSESYFGINLNPMCKPSEVSYTIFPNMAYFEFLPHNHDGDGGVEATSLVELADVEVGKEYELVITTYAGLYRYRVGDILRVTGFHNSAPQFKFIRRENVLLSIESDKTDEADLQKAVENASRLLAEQGTRVIEYTSYADTKTIPGHYVIYWELLSRDQSNALPSDEVMAKCCLEMEESLNAVYRQSRVSDKSIGPLEIRVVQNGTFEELMDFSISRGSSINQYKVPRCVSLTPIMKLLDSRVVSAHFSPSLPHWSPERRH
For the molecule B6, in series [1], the “kcat (hrs−1) IAA-Asp” value worked out at 414.602 h⁻¹ and the “kcat (hrs−1) IAA-Glu” value is 37.932 h⁻¹. Further, in series [2], the “kcat (hrs−1) 2,4-D-Asp” value stood at 2.032 h⁻¹ and the “kcat (hrs−1) 2,4-D-Glu” value was determined as 0.594 h⁻¹.

B7: AtGH3-1: GH3 protein, accession O82333 (protein, listed as Arabidopsis thaliana)
chain: MAVDSNLSSPLGPPACEKDAKALRFIEEMTRNADTVQENLLAEILARNADTEYLRRFNLCGATDRDTFKTKIPVITYEDLQPEIQRIADGDRSPILSAHPISEFLTSSGTSAGERKLMPTIKEELDRRQLLYSLLMPVMNLYVPGLDKGKGMYFLFVKSETKTPGGLPARPVLTSYYKSEHFRSRPYDPYNVYTSPNEAILCPDSFQSMYTQMLCGLLDRLSVLRVGAVFASGLLRAIRFLQLHWSRFAHDIELGCLDSEITDPSIRQCMSGILKPDPVLAEFIRRECKSDNWEKIITRIWPNTKYLDVIVTGAMAQYIPTLEYYSGGLPMACTMYASSECYFGLNLNPMSKPSEVSYTIMPNMAYFEFIPLGGTKAVELVDVNIGKEYELVVTTYAGLCRYRVGDILRVTGFHNSAPQFHFVRRKNVLLSIDSDKTDESELQKAVENASSILHEECGSRVAEYTSYADTSTIPGHYVLYWELLVRDGARQPSHETLTRCCLGMEESLNSVYRQSRVADNSVGPLEIRVVRNGTFEELMDYAISRGASINQYKVPRCVNFTPIVELLDSRVVSAHFSPSLPHWTPERRRR
Consider B7, for which, in series [1], the “kcat (hrs−1) IAA-Asp” value is 437.707 h⁻¹ and the “kcat (hrs−1) IAA-Glu” value was found to be 19.230 h⁻¹. Moreover, in series [2], the “kcat (hrs−1) 2,4-D-Asp” value came out at 1.188 h⁻¹ and the “kcat (hrs−1) 2,4-D-Glu” value was determined as 0.136 h⁻¹.
